{"source": "the DeepSol protein solubility set"}
{"experiment": "soluble on expression in E. coli; label from the status in PepcDB or PDB records"}
{"sequence": "MSLKNLILAIESSCDDSSIAIIDKNTLECKFHKKISQELDHSIYGGVVPELAARLHSEALPKMLKQCKEHFKNLCAIAVTNEPGLSVSLLSGISMAKTLASALNLPLIPINHLKGHIYSLFLEEKISLDMGILLVSGGHTMVLYLKDDASLELLASTNDDSFGESFDKVAKMMNLGYPGGVIIENLAKNAKLKNISFNTPLKHSKELAFSFSGLKNAVRLEILKHENLNEDTKAEIAYAFENTACDHIMDKLEKIFNLYKFKNFGVVGGASANLNLRSRLQNLCQKYNANLKLAPLKFCSDNALMIARAAVDAYEKKEFVSVEEDILSPKNKNFSRIEGHHHHHH", "soluble on expression in E. coli": "soluble"}
{"sequence": "SRQETGGNLMSEPLLIARTPDTELFLLPGMANRHGLITGATGTGKTVTLQKLAESLSEIGVPVFMADVKGDLTGIAQAGTASEKLLTRLKNIGVNDWQPHANPVVVWDIFGEKGHTVRATVSDLGPLLLARLLNLNDVQSGVLNIIFRIADDQGLLLLDFKDLRAITQYIGDNAKSFQNQYGNISSASVGAIQRGLLSLEQQGAAHFFGEPMLDIKDWMRTDANGKGVINILSAEKLYQMPKLYAASLLWMLSELYEQLPEAGDLEKPKLVFFFDEAHLLFNDAPQVLLDKIEQVIRLIRSKGVGVWFVSQNPSDIPDNVFGQLGNRVQHALRAFTPKDQKAVKTAAQTMRANPAFDTEKAIQELGTGEALISFLDAKGSPSVVERAMVIAPCSRMGPVTEDERNGLINHSPVYGKYEDEVDRESAYEMLQKGFQASTEQQNNPPVKGKEVAVDDGILGGLKDILFGTTGPRGGKKDGVVQTMAKSAARQVTNQIVRGMLGSLLGGRKR", "soluble on expression in E. coli": "not soluble"}
{"sequence": "MEPYVGIVIFELAKSNTSPEENNSFFREDFYIVYADSEEAAHKLVEKRAHEEETPKNAAQDSGPTVTLRHIIDVAPALYGYVDKDCNLYSRHFASLEDYARFEMMLGGKDPLSH", "soluble on expression in E. coli": "soluble"}
{"sequence": "MIWIINISWMHSIFDFISMLINRNHFSKWSISNGRHVSFCNWVFTYTNICSKSFNYRRRSCFKNISISYPFCRIHSIFNKFFTYFIISNCSCPTHRLFCIWRSLFTRSLEHHHHHH", "soluble on expression in E. coli": "not soluble"}
{"sequence": "MGSDKIHHHHHHMGRRGLMTETTYYVNGTEVYVAEIPSNQSTETFFLIHGFVSSTYSYRKLMPLLAKRGRVISVDLPGFGRSGKGRTFTYSFQCYAELMVALMRKLNVSKVTFVGHSMGGQVALYVAKWKPHLVKRLVLLSSSGYLQRVKRPFYFLSYIPFLRQMVKWYVQRQDVTKALQQVVYNKGIVNNEAVEMYRLPLADETFYDALLCLMRQREGDLPKEELRKIHHPVLLLWGEQDRVIPVKIGQRLASDLPNASLIVYKNTGHLLPEERPKEIMKAIDRFIRKRRQFSFFS", "soluble on expression in E. coli": "not soluble"}
{"sequence": "AMKPAQKGKTFSNVEIFDPPTNYRDPQVLYARPLELSDGTLLGTWENYSPEPPNVWFPIVKSKDGGKTWKEISKVKDTQNNWGLRYQPQLYELPRAFGKYPKGTVLCSGSSIPSDLSETLIEVYASRDKGYTWEFVSHVALGGEALPNPGLTPVWEPFLMTYKEKLILYYSDQRDNATHSQKLVHQTTTDLKKWSKVVDDTKYADYYARPGMPTVAKLPNNEYIYVYEYGGGPNPPAGSDYWFPVYYRLSKDPQKFLNKAHHQIVSNDGTTPAGSPYVVWTPYGGKNGTIVVSCGTRSEIFTNQALGDASAWKKWDVPQPTAYTRSLLTFQKDPDLLMIMGAGILPPAGGKNTVSASVVRLSEVMKS", "soluble on expression in E. coli": "soluble"}
{"sequence": "MSLFSISNLSFIGFLKRIVFSSDSLPGKWEHRKFRFMYILRCSINPVVSIRYYYELRSLPCIEDILAIHPTLPARIHRPYLHKGGRAWTRGQYILEHYRFVQNLPEKYSKFLFPQKSVSLVQFIGKDGENFDIQCSPSGFDREGELMLSLFYNKTVIARLTYSVILTQNGHIAFIGGLQGAPKNTGPDVIRCATRACYGLFPKRIIFEAFCALMKACNVSECLAVSEHSHVFRQLKYWYQKRKTFVAVYSDFWDSVPGKTCGDWYKLPTQVIRKPLTDIPIKKRSDYRKQYALLDYIHETTIRSLDAYPVHSKHQNSNEGHHHHHH", "soluble on expression in E. coli": "not soluble"}
{"sequence": "MGSDKIHHHHHHMWPDRHAKHLTLGRSRQQMLEFENVSKSFWTGTQRKVILDRVSFRVELGKSMGILAPNGTGKSTLINMMAGLEKPDEGVIRRGCNISFPLGFMGGVVGRLSAMENSRYIARLYGMDPDYIEAYCRWLCGLGEYFDQPLGTYSSGMRARFSFALMLALDFDMYLIDEGMPASTDVEFNKKAGAILEERLRTTTIVIVSHQPATLEQFARQAAVLMDGQLHVFDTLEEAKQLYDYQTQG", "soluble on expression in E. coli": "not soluble"}
{"sequence": "MGSDKIHHHHHHVYQDLSRFSMPADFRGKPGWYVQLWWVVQALLFHPSPQIMYGWRRLLLRAFGAQIGKGVIIRPSAQITYPWKLAIGDYAWIGDEVVLYTLGNITIGKNAVVSQRSYICTGSHDFKKEAFDIFSKPIIIDDECWLATDVFVGPGVKISKGIVIGARSSVYKNIEATPGIYTGNPATRVGDR", "soluble on expression in E. coli": "not soluble"}
{"sequence": "MSLIEQLIQQAQPYWQQYIEHEFVQQLAKGTLPKACFQHYLKQDYLYLFHYSRAFALGVFKAKNFAEMETPRKTLEILCQEIQLHLNYCREWGISEQEIFTTQESAACIAYTRYLLDCGMTGSLAELYAAVTPCALGYAQVARYITQHYPRLPNNPYQTWIDTYASEEFQQAAQETVDFLTALCKPLNPSQLAEIQQIFTTATRMEIAFWQMGLDLAEGGSHHHHHH", "soluble on expression in E. coli": "soluble"}
{"sequence": "MSLGKDIKVGYNWELSGNVSSYGNSMKNGADLAVKEINAAGGVGGKKLKVLSQDNKSENAEAATVATNLVTKGANVIIGPATSGAAASSTPKVNAAAVPMIAPAATQDNLVYGSDGKTLNQYFFRATFVDNYQGKLLSQYATDNLKAKKVVLFYDNSSDYSKGVAKSFKESYSGKIVDSMTFSAGDTDFQASLTKLKGKEYDAIVMPGYYTETGLIVKQARDLGISKPVLGPDGFDSPKFVQSATPVGASNVYYLTGFTTQGSTKAKAFHDHYVKAYGEEPSMFSALSYDAVYMAAKSAKGAKTSIDIKKALAKLKDFKGVTGKMSIDKNHNVVKSAYVVKLEDGKTSSVNIISAKEGHHHHHH", "soluble on expression in E. coli": "soluble"}
{"sequence": "MELKQFKIAVLPLRDKLLSYARKLTDDHSDAEDAVQEVMLKLWNLRPKLDEYHSIEALAMTMTHHTCMDILRGKHPDNLSLDSVQAASPVATPERLLEEKDEFSLMRHIISTLPPLQQTILRMKDVEEYETEEIAEITGCSSEAIRSNLSRARKKVRDIYLQTIQQRKRRNEA", "soluble on expression in E. coli": "not soluble"}
{"sequence": "MSLERPEEYLPNIFEGKKGVIVDYGCGNGFYCKYLLEFATKLYCIDINVIALKEVKEKFDSVITLSDPKEIPDNSVDFILFANSFHDMDDKQHVISEVKRILKDDGRVIIIDWRKENTGIGPPLSIRMDEKDYMGWFSNFVVEKRFNPTPYHFGLVLKRKTSEGHHHHHPDPNSSSVDKLAAALEHHHHHH", "soluble on expression in E. coli": "soluble"}
{"sequence": "MKMIIAIVQDQDSQELADQLVKNNFRATKLATTGGFLRAGNTTFLCGVNDDRVDEILSVINQTCGNREQLVSPITPMGGSADSYIPYPVEVEVGGATVFVMPVDAFHQF", "soluble on expression in E. coli": "not soluble"}
{"sequence": "QSVLTQPPSVSAAPGQKVTISCSGSTSNIGNNYVSWYQQHPGKAPKLMIYDVSKRPSGVPDRFSGSKSGNSASLDISGLQSEDEADYYCAAWDDSLSEFLFGTGTKLTVLGQPKAAPSVTLFPPSSEELQANKATLVCLISDFYPGAVTVAWKADSSPVKAGVETTTPSKQSNNKYAASSYLSLTPEQWKSHKSYSCQVTHEGSTVEKTVAPTECS", "soluble on expression in E. coli": "soluble"}
{"sequence": "MGSDKIHHHHHHATETEKDQRKFDYFFYEGLNLKNAGKFDAAYDAFNHCLEIDSTAAPVLYELSSFYVQLNRPEKAVEMLKRAVANSKDNFTYKMALASITRNLGMYGEAAEEYEELVRDYPEKEELNYYLADALTQAGEIGKAIEAYDALESVMGMNEAISMQKYKLYVQLEKPEEAFKEIEKLAAKYPMEARYQIVLGDLHLENGEMDKALACYQKANEIDPTDPYYIVSMANYYEAKGDKEAAEQQIRSALVNEKLDVETKVNILSRYILKLQQTKQGTENANHLFQTLLEQHPEDIDLKLMYGGLLMAQGKTEEAKFQFQLVTEMEPGNAGAWQQLLNLALKGEDIPEVIRICTACMELFPESPEYYFYLGIAYYQQQKYQEALNTYYAGLNIIPKENLPLKSDFYGQIGDIYYQMGQLDQAYKAYDEALKYNDKNVVVLNNYSYFLSLEKKDLKKAERMSAQCIKLEPDNATYLDTYAWIFFVQGNYTLAKIYIESALEKDKTKSAELVDHYGDILFMNGDKEKAVEQWKKAKEMGKDSEILNRKIAEQQYIEDENAK", "soluble on expression in E. coli": "not soluble"}
